Experimental data reported in PMC7467640.

Key:
[1] = target: His224 (UniProt position 224, …); assay: potentiometry; conditions: 298 K; 0.1 M (NaClO4); none (4 mM HClO4, titrated with carbonate-free NaOH); metal-free peptide, 0.5 mM, argon atmosphere
[2] = target: His239 (UniProt position 239, …); assay: potentiometry; conditions: 298 K; 0.1 M (NaClO4); none (4 mM HClO4, titrated with carbonate-free NaOH); metal-free peptide, 0.5 mM, argon atmosphere

B1: ZnuA fragment 223-240 (secondary metal binding site peptide), Ac-GHFTVNPEIQPGAQRLHE-NH2 (Escherichia coli) (peptide)
chain: GHFTVNPEIQPGAQRLHE
[1]
  pKa: 6.76
[2]
  pKa: 6.16
